For data set [1], the target named is T1, BsDusB1 (Bacillus subtilis, UniProt P37567).
T1 construct: gene dus1; monomer about 40 kDa; synthetic gene (Eurofins)
T1 sequence (P37567 1-333): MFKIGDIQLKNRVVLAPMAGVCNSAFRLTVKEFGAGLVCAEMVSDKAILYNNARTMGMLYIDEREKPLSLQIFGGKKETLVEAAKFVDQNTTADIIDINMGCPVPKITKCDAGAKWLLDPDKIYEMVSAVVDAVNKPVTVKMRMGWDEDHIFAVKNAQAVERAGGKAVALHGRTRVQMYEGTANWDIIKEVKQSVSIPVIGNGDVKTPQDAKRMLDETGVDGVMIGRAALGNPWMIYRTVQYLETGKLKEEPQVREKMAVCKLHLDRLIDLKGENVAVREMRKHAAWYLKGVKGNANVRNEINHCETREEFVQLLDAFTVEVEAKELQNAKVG
Briefly: copurified flavin, UV-visible absorption and fluorescence, SDS release. The class given is binding. The settings on record: non-covalent.

Data set [2] deals with T2, BsDusB2 (Bacillus subtilis, UniProt O31546).
T2 construct: gene dus2; monomer about 39 kDa; synthetic gene (Eurofins)
T2 sequence (O31546 1-325): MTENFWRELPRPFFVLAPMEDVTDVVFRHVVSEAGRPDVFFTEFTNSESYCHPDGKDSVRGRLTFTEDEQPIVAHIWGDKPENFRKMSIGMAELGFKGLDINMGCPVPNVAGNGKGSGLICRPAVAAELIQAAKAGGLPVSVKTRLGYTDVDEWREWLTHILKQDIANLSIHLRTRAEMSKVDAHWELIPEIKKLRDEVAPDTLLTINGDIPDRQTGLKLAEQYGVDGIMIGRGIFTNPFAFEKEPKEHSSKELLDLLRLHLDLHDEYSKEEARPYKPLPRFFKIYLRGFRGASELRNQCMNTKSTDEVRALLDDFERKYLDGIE
The data set is described as above. The class given is binding. The settings on record: non-covalent.

Substrate in data set [3]: NC(=O)C1=CN([C@@H]2O[C@H](COP(=O)(O)OP(=O)(O)OC[C@H]3O[C@@H](n4cnc5c(N)ncnc54)[C@H](O)[C@@H]3O)[C@@H](O)[C@H]2O)C=CC1
Description: purified protein. The class given is biochemical, Bacillus subtilis. The settings on record: aerobic (NAD(P)H oxidase, no tRNA mentioned).

Substrate in data set [4]: NC(=O)C1=CN([C@@H]2O[C@H](COP(=O)(O)OP(=O)(O)OC[C@H]3O[C@@H](n4cnc5c(N)ncnc54)[C@H](OP(=O)(O)O)[C@@H]3O)[C@@H](O)[C@H]2O)C=CC1
Briefly: purified protein. The conditions noted are these: aerobic (NAD(P)H oxidase, no tRNA mentioned). The class given is biochemical, Bacillus subtilis.

As for `Cc1cc2nc3c(=O)[nH]c(=O)nc-3n(C[C@H](O)[C@H](O)[C@H](O)COP(=O)(O)O)c2cc1C` [FMN], the “copurified flavin, UV-visible absorption and fluorescence, SDS release” value in data set [1] and in data set [2] was “both BsDusB enzymes are flavoproteins with the FMN non-covalently bound to the apoprotein” in each case.

B1: BsDusB2 (Bacillus subtilis subsp. subtilis str. 168) (protein)
chain: MTENFWRELPRPFFVLAPMEDVTDVVFRHVVSEAGRPDVFFTEFTNSESYCHPDGKDSVRGRLTFTEDEQPIVAHIWGDKPENFRKMSIGMAELGFKGLDINMGCPVPNVAGNGKGSGLICRPAVAAELIQAAKAGGLPVSVKTRLGYTDVDEWREWLTHILKQDIANLSIHLRTRAEMSKVDAHWELIPEIKKLRDEVAPDTLLTINGDIPDRQTGLKLAEQYGVDGIMIGRGIFTNPFAFEKEPKEHSSKELLDLLRLHLDLHDEYSKEEARPYKPLPRFFKIYLRGFRGASELRNQCMNTKSTDEVRALLDDFERKYLDGIE
notes: monomer about 39 kDa; synthetic gene (Eurofins)
What is called Km is the concentration of substrate that gives half-maximal velocity. The term kcat denotes the number of substrate molecules converted per active site and unit of time at saturation. What is called kcat/Km is the turnover number divided by the Michaelis constant. Turning to B1, the Km in data set [3] (kcat error missing in the table) was 22 ± 4 µM. Also, in data set [4], the Km turned out to be 2.1 ± 0.2 µM, the kcat is 0.7 ± 0.1 s⁻¹ and the specificity constant (kcat/Km) was 300000 M⁻¹ s⁻¹.

B2: BsDusB1 (Bacillus subtilis subsp. subtilis str. 168) (protein)
chain: MFKIGDIQLKNRVVLAPMAGVCNSAFRLTVKEFGAGLVCAEMVSDKAILYNNARTMGMLYIDEREKPLSLQIFGGKKETLVEAAKFVDQNTTADIIDINMGCPVPKITKCDAGAKWLLDPDKIYEMVSAVVDAVNKPVTVKMRMGWDEDHIFAVKNAQAVERAGGKAVALHGRTRVQMYEGTANWDIIKEVKQSVSIPVIGNGDVKTPQDAKRMLDETGVDGVMIGRAALGNPWMIYRTVQYLETGKLKEEPQVREKMAVCKLHLDRLIDLKGENVAVREMRKHAAWYLKGVKGNANVRNEINHCETREEFVQLLDAFTVEVEAKELQNAKVG
notes: monomer about 40 kDa; synthetic gene (Eurofins)
With B2, in data set [3], the Km was found to be 21 ± 4 µM, the kcat was 0.013 ± 0.0014 s⁻¹ and the kcat/Km was determined as 600 M⁻¹ s⁻¹. Also, in data set [4], the Km was 18 ± 3 µM, the kcat stood at 0.013 ± 0.002 s⁻¹ and the kcat/Km came to 700 M⁻¹ s⁻¹.

Source of the values: paper PMC11162810, “Functional redundancy in tRNA dihydrouridylation” (Nucleic Acids Research, 2024).
